Assay [1] concerns the target T1, endogenous human ErbB3 expressed on human cancer cells (MCF7; A431NS) (human, UniProt P21860 20-1342).
T1 construct: whole, on cells; also called Her3; HER3/c-ErbB3
Put plainly: flow cytometry on MCF7 cells. Here is the method: This example illustrates the binding of anti-ErbB3 antibodies to endogenous human ErbB3 expressed on human cancer cells, as assayed by flow cytometry. EC₅₀ values for antibodies were determined as follows.
Her3 expressing MCF7 cells were harvested with enzyme-free Cell Dissociation Buffer (GIBCO) and transferred to V-Bottom 96 well-plates (50,000 cells/well). Cells were incubated on ice for 30 min with serial dilutions of anti-ErbB3 antibodies in FACS buffer (PBS+2% FBS)+NaN₃. After 2 washes in FACS buffer, a 1:1000 dilution of Phycoerythrin conjugated anti-Human IgG (γ-chain specific) was added and incubated for 30 min. Following a final wash, fluorescence intensity was measured on an Intellicyt High Throughput Flow Cytometer (HTFC). Data were analyzed using Graphpad Prism software using non-linear regression fit. Data points are shown as the median fluorescence intensity (MFI) of positively labeled cells +/− Standard Error. EC₅₀ values are reported as the concentration of antibody to achieve 50% of maximal ErbB3 antibodies binding to ErbB3 expressing cells.

In assay [2] the target is T1, endogenous human ErbB3 expressed on …. The assay can be described thus: cell-based or functional assay.

T1 sequence (P21860 20-1342): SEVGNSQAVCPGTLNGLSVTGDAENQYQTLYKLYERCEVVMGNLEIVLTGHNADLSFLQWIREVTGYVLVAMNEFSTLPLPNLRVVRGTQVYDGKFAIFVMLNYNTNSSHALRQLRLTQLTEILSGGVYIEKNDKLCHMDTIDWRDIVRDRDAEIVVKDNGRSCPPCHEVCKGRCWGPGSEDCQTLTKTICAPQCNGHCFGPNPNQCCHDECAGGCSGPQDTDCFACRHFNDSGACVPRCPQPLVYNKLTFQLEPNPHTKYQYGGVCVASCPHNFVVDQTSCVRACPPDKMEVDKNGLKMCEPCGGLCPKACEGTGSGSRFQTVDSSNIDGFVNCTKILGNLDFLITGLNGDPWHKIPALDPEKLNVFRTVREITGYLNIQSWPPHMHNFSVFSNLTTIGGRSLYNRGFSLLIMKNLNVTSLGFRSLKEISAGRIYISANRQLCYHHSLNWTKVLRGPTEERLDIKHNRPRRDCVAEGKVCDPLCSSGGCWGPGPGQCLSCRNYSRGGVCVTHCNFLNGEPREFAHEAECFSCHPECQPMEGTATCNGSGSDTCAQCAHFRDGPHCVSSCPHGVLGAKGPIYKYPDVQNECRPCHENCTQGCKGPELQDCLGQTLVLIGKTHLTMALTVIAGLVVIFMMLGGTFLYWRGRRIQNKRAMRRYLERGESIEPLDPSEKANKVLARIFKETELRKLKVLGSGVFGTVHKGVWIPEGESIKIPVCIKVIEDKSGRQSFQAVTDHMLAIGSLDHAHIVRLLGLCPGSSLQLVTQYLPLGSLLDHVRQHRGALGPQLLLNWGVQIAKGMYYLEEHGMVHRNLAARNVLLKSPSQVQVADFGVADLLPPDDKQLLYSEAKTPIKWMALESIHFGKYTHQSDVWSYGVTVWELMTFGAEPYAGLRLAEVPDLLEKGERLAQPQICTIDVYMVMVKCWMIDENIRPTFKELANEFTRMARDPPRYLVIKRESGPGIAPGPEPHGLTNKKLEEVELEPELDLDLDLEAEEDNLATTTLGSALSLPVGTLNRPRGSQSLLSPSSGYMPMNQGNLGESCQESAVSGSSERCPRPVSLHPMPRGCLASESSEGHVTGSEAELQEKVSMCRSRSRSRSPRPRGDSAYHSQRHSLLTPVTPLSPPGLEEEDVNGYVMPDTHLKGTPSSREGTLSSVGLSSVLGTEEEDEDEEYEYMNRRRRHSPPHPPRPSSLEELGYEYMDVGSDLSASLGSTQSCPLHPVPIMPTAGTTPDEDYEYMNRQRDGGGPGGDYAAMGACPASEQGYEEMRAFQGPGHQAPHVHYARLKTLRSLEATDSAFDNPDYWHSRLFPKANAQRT

B1: D07 (antibody, V domains shown)
VH: QVQLVESGGGLVQPGGSLRLSCVASGFTFSSYWMSWVRQAPGKGLEWVAYINLDGSEKDYVDSVKGRFTISRDNAKNSLYLQMNSLRAEDTALYYCAKAYSSSWLLSGGMDVWGQGTTVTVSS
VL: SYELTQPASVSGSPGQSITISCTGTSSDVGNYNSVSWYQQHPGKAPELMIYDVNNRPSGVSNRFSGSKSGNTASLTISGLQAEDEADYYCSSYTSSSTLVFGGGTQLTVLG
B1 had an EC50 in assay [1] of 933 pM. That is a sub-nanomolar value.

B2: D03 (antibody, V domains shown)
VH: QVQLVESGGGLVKPGGSLRLSCAASGFTFSSYSMNWVRQAPGKGLEWVSSISSSSSYIYYADSVKGRFTISRDNSKNTLYLQMNSLRDEDTAVYYCAREILTGYYPDAFDMWGQGTMVTVSS
VL: SYELMQPPSVSVAPGKTARITCGGNNIGSKSVHWYQQKPGQAPVVVIYYDSDRPSGIPERFSGSNSGNTATLTISRVEAGDEADYYCQVWDSSSDHYVFGTGTKLTVL
In the case of B2, the EC50 in assay [1] was determined as 5970 pM.

B3: C03 (antibody, V domains shown)
VH: QVQLVQSGAEVKKPGASVKVSCKASGYTFTSYGISWVRQAPGQGLEWMGWISAYNGNTNYAQKLQGRVTMTTDTSTSTAYMELRSLRSDDTAVYYCAREAYAWGAFDIWGQGTMVTVSS
VL: SYELMQPPSVSVAPGKTARITCGGNNIGSKSVHWYQQKPGQAPVLVIYYDSDRPSGIPERFSGSNSGNTATLTISRVEAGDEADYYCQVWDSSRDHAVFGGGTKLTVL
Consider B3, for which the midpoint of the response in assay [1], the EC50, lay at 427 pM.

B4: D08 (antibody, V domains shown)
VH: QVQLVESGGGLVKPGGSLRLSCAASGFTSSSYVLNWVRQAPGKGLEWVSSISSRGSYIYYADSVKGRFTISRDNAKNSLYLQMNSLRAEDTAVYYCARERAGFSPVNAFDIWGQGTMVTVSS
VL: QSVLTQPASVSGSPGQSITISCTGSSSDVGSYNLVSWYQQHPGKAPKLMIYDDNRRPSGISTRFSGSKSGNTASLTVSGLQAEDEAYYYCSSYAGRNNDVIFGGGTQLTVL
For B4, the response in assay [1] was half-maximal at 1930 pM (EC50).

B5: E08 (antibody, V domains shown)
VH: EVQLVESGGGLIQPGGSLRLSCAASGFTVSSNYMSWVRQAPGKGLEWVSVIYSGGSTYYADSVKGRFTISRDNSKNTLYLQMNSLRAEDTAVYYCARDFGVGAVDYWGQGTLVTVSS
VL: QSVLTQPASVSGSPGQSITISCTGTSSDVGGYNFVSWYQQHPGKAPKLMIYDVTNRPSGVSNRFSGSKSGNTASLTISGLQAEDEADYYCSSYTDSSTLDVVFGGGTKVTVL
Take B5: in assay [1], the midpoint of the response, the EC50, lay at 3070 pM.

B6: A02 (antibody, V domains shown)
VH: EVQLVQSGAEVKKPGASVTVSCKPSGYAFTDYYIHWVRQAAGQGLEWMGWVDPRSGATVYAQNFQGRVTMTRDRSSSTVYMDLSRVTSDDTALYFCGRDNYGIFDYWGQGTLVTVSS
VL: QPVLTQPPSVSAAPGQRVTISCSGSSSNIGNNYLSWYQQLPGTAPKLLIYDDTKRPSGIPDRFSGSKSGTSATLGITGLQTGDEADYYCGTWDGSLDAEVFGTGTKLTVL
notes: also called ErbB3-A02; anti-ErbB3 A02
In the case of B6, in assay [1], it took 1220 pM to reach a half-maximal effect (EC50). Besides, in assay [2], the “IC50, inhibition of ERK1/2 phosphorylation induced by NRG1 beta-1 (phospho-p44/42 MAPK ELISA, MCF7)” value worked out at 120 pM; the “IC50, inhibition of ErbB3 phosphorylation induced by Heregulin (phospho-HER3 ELISA, MCF7)” value (shortened to “IC50, inhibition … (phospho-HER3 ELISA, MCF7)”) stood at 120 pM; the “IC50, inhibition of NRG1-beta 1 induced MCF7 proliferation (MTT)” value (shortened to “IC50, inhibition … (MTT)”) was 2800 pM.

B7: D01 (antibody, V domains shown)
VH: EVQLVQSGAEVRKPGASVKVSCKASQYTFTNYHIHWVRQVPGQGLEWMAMINPSNGNTNYGQRFQDRVTLTRDTSTSTAYMELSSLRSEDTAVYLCARDGLTFGDLLAYWGQGTLVTVSS
VL: QSVLTQPPSASGTPGQSVTISCSGSSSNIGGNTVNWYQQFPGTAPKLLMYINNLRPAGVPDRFSGSKSGTSASLVISGLQSEDEADYYCASWDDSLSGLVFGGGTKLTVL
B7: the EC50 in assay [1] worked out at 4030 pM.

B8: A04 (antibody, V domains shown)
VH: QVQLQQSGPGLVQPSQTLSLTCDISGDSVSSTGAAWNWIRQSPSRGLEWLGRTYYRSKWYNDYALSVRSRITITPDTSKNQFSLQLNSVTPEDTAVYYCVRDGDVGLDAFDIWGQGTMVTVSS
VL: QTVVTQAPSVSVAPGQTARITCGGNNIGSKSVHWYQQKPGQAPVLVVYDDSDRPSGIPERFSGSNSGNTATLTISRVEAGDEADYYCQVWDSTSDHVVFGGGTKVTVL
notes: also called ErbB3-A04; anti-ErbB3 A04
The molecule B8 yielded an EC50 in assay [1] of 163 pM. Besides, in assay [2], the “IC50, inhibition of ERK1/2 phosphorylation induced by NRG1 beta-1 (phospho-p44/42 MAPK ELISA, MCF7)” value was 130 pM and the “IC50, inhibition … (phospho-HER3 ELISA, MCF7)” value is 130 pM.

B9: D10 (antibody, V domains shown)
VH: QVQLVESGGGLVQPGGSLRLACAASGFTFSNYEMNWVRQAPGKGLEWVATISDDSVYKYYADSVKGRFTISRDNSKALFYLQMDSLTFEDTAIYYCARDPGGDSLGYFQHWGQGTLVTVSS
VL: QAGLTQPPSASASPGDSVTLTCTLSSDHSDYKVDWYQQRPGKGPRFVMRVGTGGIVGVKGDGIPDRFSVWGSGPNRYLTIKNIQEEDESDYHCGSDHGSGNNYVYVFGGGTKLTVL
For the molecule B9, it took 2010 pM to reach a half-maximal effect in assay [1] (EC50).

B10: B01 (antibody, V domains shown)
VH: QVQLVESGGGLVQPGGSLRLACAASGFTFSNYEMNWVRQAPGKGLEWVATISDDSVYKYYADSVKGRFTISRDNSKALFYLQMDSLTFEDTAIYYCARDPGGDSLGYFQHWGQGTLVTVSS
VL: QAGLTQPPSASASPGDSVTLTCTLSSDHSDYKVDWYQQRPGKGPRFVMRVGTGGIVGVKVSNRFSGSKSGNTASLTISGLQAEDEADYYCSSYTDSSTLDVVFGGGTKLTVL
Molecule B10 registered a half-maximal effective concentration (EC50) in assay [1] of 2650 pM.

B11: A08 (antibody, V domains shown)
VH: QMQLVQSGADVKKPGASVRVSCKTSGYTFTSYDINWVRQAPGQGLEWMGWMNPDTGNTAYVQKFQGRVTVTRDTSINTVYMELSGLRSEDTAVYYCAKSGGSSSYDAFDIWGQGTMVTVSS
VL: QSVLTQPPSVSVAPGNTATITCGGDNIGEKTVHWYQQRPGQAPALVIYYDSDRPSGIPERFSGSNSGNTATLTISRVEAGDEADYYCQVWDSSSDHVVFGGGTKLTVL
notes: also called ErbB3-A08
The molecule B11 displayed an EC50 in assay [1] of 747 pM. The “IC50, inhibition … (MTT)” value in assay [2] came to 12800 pM.

B12: B08 (antibody, V domains shown)
VH: QVQLVQSGAEVKKPGASVKVSCKASGYTFTSHYGISWVRQAPGQGLEWMGSITPHNGKTNYVQMFQGRVTMTTDTSTRTVYMELRNLRSDDTAVYYCARDWNFADFDYWGQGTLVTVSS
VL: QSVLTQPPSASGSPGQSVTISCTGTSSDVGGYNFVSWYQQHPGKAPKLMIYDVTNRPSGVSNRFSGSKSGNTASLTISGLQAEDEADYYCSSYTSSSTPYVFGTGTKLTVL
B12 yielded an EC50 in assay [1] of 92.1 pM.

B13: A11 (antibody, V domains shown)
VH: QVQLVQSGRGLVQPGRSLRLSCAASGFTFDEYAMHWVRHAPGKGLEWVAGMSWNGGGIGYADSVKGRFTISRDNSKNTLYLQMNSLRAEDTAVYYCAREGAGGSYPTDAFDIWGQGTTVTVSS
VL: IVLTQSPSSLSASVGDRVTITCQASHDISNYLTWYQHRPGRAPKLLIFDASRLETGVPSRFSGYGSGKDFTFTISGLQPEDFATYYCQHYADLPSFGQGTKLEIK
notes: also called ErbB3-A11
For the molecule B13, the EC50 in assay [1] is 219 pM.

B14: B11 (antibody, V domains shown)
VH: QVQLVQSGRGLVQPGRSLRLSCAASGFTFDEYAMHWVRHAPGKGLEWVAGMSWNGGGIGYADSVKGRFTISRDNSKNTLYLQMNSLRAEDTAVYYCAREGAGGSYPTDAFDIWGQGTTVTVSS
VL: EIVLTQSPSSLSASVGDRVTITCQASHDISNYLTWYQHRPGRAPKLLIFDASRLETGVPSRFSGYGSGKDFTFTISGLQPEDFATYYCQHYADLPSFGQGTKVDIK
Take B14: the 50% effective concentration (EC50) in assay [1] was 49 pM. Compared with the last molecule, the EC50 is about 4.5-fold lower.

B15: A01 (antibody, V domains shown)
VH: QVQLVQSGAEVKQPGASVKVSCKASGGTFSSYAISWVRQAPGQGLEWMGGIIPIFGTANYAQKFQGRVTITADESTSTAYMELSSLRSEDTAVYYCATTTMVRGVIMYYFDYWGQGTLVTVSS
VL: QSALTQPPSASGSPGQSVTISCTGTSSDVGAYNDVSWYQHHPGKAPKLIIYEVNHRPSGVPDRFSGSKSDNTASLTISGLQAEDEADYYCSSYTPSNTPLVFGSGTKVTVL
notes: fully human antibody of an IgG class, detected with anti-human IgG (gamma-chain specific); also called ErbB3-A01; anti-ErbB3 A01
The molecule B15 displayed an EC50 in assay [1] of 5710 pM. Also, in assay [2], the “IC50, inhibition of ERK1/2 phosphorylation induced by NRG1 beta-1 (phospho-p44/42 MAPK ELISA, MCF7)” value came out at 460 pM; the “IC50, inhibition … (phospho-HER3 ELISA, MCF7)” value came out at 460 pM; the “IC50, inhibition … (MTT)” value was 10600 pM.

B16: D04 (antibody, V domains shown)
VH: EVQLLESGGGLVKPGGSLRLSCAASGFTFSSYSMNWVRQAPGKGLEWVSSISSSSSYIYYADSVKGRFTISRDNAKNSLYLQMNSLRAEDTAVYYCARGFGEDLFDYWGQGTLVTVSS
VL: QSVLTQPPSVSVAPGKTARITCGGNNIGSKSVHWYQQKPGQAPLLVIYYDTDRPSGIPERFSGSNSENTATLTISGVEAGDEADYYCQVWDIGSDQVVFGTGTKVTVL
In assay [1], B16 had an EC50 of 24.2 pM.
